Measurements reported in patent publication US12576025B2, “Pharmaceutical parenteral composition of dual GLP1/2 agonist” (Zealand Pharma A/S, priority 2019, dated 2026).
*1 amine or outer side, *2 acyl side, *3 side chain or, on linkers, in order; H or OH if unused. Where no end group is shown, it is not given here. Side-chain parts run from the residue outwards. [ ]: non-standard residue; d: D form. The star is where a group is joined. C18 diacid = O=C(O)CCCCCCCCCCCCCCCCC(=O)*; γGlu = O=C(O)[C@H](CCC(=O)[*:2])N[*:1]; Aib = CC(C)(N)C(=O)O

Assay: Physical stability via ThT fibril formation (ASSAY IVc)
Format: physicochemical
Set-up: key to Aggregation (ThT), no added tonicity agent / Aggregation (ThT), 270 mM mannitol: FD = Fibrillation Detected; FND = Fibrillation Not Detected
Conditions: for Aggregation (ThT), 270 mM mannitol / Aggregation (ThT), no added tonicity agent: 96 hours
Protocol: Samples were prepared in a total volume of 0.5 mL API (herein e.g. CPD1) stock solutions were prepared by dissolving API in demineralised water at ambient temperature (typically 25° C.) to achieve 5 and 25 mg/mL API, respectively. 8 working solutions were prepared: 1) 40 mM phosphate pH 6 and 80 μM ThT; 2) 40 mM phosphate pH 6.5 and 80 μM ThT; 3) 40 mM phosphate pH 7 and 80 μM ThT; 4) 40 mM phosphate pH 8 and 80 μM ThT; 5) 40 mM phosphate pH 6, 540 mM mannitol and 80 μM ThT; 6) 40 mM phosphate pH 6.5, 540 mM mannitol and 80 μM ThT; 7) 40 mM phosphate pH 7, 540 mM mannitol and 80 μM ThT; and 8) 40 mM phosphate pH 8, 540 mM mannitol and 80 μM ThT.
200 μL of API stock was mixed with 250 μL working solution, pH was measured and adjusted to target, followed by adding demineralised water to a final volume of 500 μL. Samples were loaded in a 96-well black fluorescence plate (clear bottom) in triplicate 3×150 μL. Data were collected at fixed intervals of 10 min, each preceded by 300 s of automixing (agitation), over a period of 96 hours at 40° C. Physical stability, expressed as lag-time of fibril formation (in hours), was defined as the intersection between two linear regressions representing the initial stable phase and the growth phase.

[1] = 2 mg/mL CPD1, 20 mM phosphate pH 6, 40° C.
[2] = 2 mg/mL CPD1, 20 mM phosphate pH 6.5, 40° C.
[3] = 2 mg/mL CPD1, 20 mM phosphate pH 7, 40° C.
[4] = 2 mg/mL CPD1, 20 mM phosphate pH 8, 40° C.
[5] = 10 mg/mL CPD1, 20 mM phosphate pH 6, 40° C.
[6] = 10 mg/mL CPD1, 20 mM phosphate pH 6.5, 40° C.
[7] = 10 mg/mL CPD1, 20 mM phosphate pH 7, 40° C.
[8] = 10 mg/mL CPD1, 20 mM phosphate pH 8, 40° C.

## H[Aib]EGSFTSELATILD[ψ]QAARDFIAWLIQHKITD (H[Aib]EGSFTSELATILDK([γGlu-C18 diacid])QAARDFIAWLIQHKITD; not fully specified; printed as H[Aib]EGSFTSELATILD[ψ]QAARDFIAWLIQHKITD; also: X16: L or D lysine) [CPD1, GLP-1/GLP-2 dual agonist]
[1]
  Aggregation (ThT), 270 mM mannitol: FD
  Aggregation (ThT), no added tonicity agent: FD
[2]
  Aggregation (ThT), 270 mM mannitol: FND
  Aggregation (ThT), no added tonicity agent: FND
[3]
  Aggregation (ThT), 270 mM mannitol: FND
  Aggregation (ThT), no added tonicity agent: FND
[4]
  Aggregation (ThT), 270 mM mannitol: FND
  Aggregation (ThT), no added tonicity agent: FND
[5]
  Aggregation (ThT), 270 mM mannitol: FD
  Aggregation (ThT), no added tonicity agent: FD
[6]
  Aggregation (ThT), 270 mM mannitol: FND
  Aggregation (ThT), no added tonicity agent: FND
[7]
  Aggregation (ThT), 270 mM mannitol: FND
  Aggregation (ThT), no added tonicity agent: FND
[8]
  Aggregation (ThT), 270 mM mannitol: FND
  Aggregation (ThT), no added tonicity agent: FND
2 and 10 mg/mL CPD1, pH 6
  Amyloid formation / fibrillation: amyloid formation was observed
2 and 10 mg/mL CPD1, pH 7 or 8
  Amyloid formation / fibrillation: no fibrillation was observed
